B1: Brain-derived neurotrophic factor (BDNF), mature (His131-Arg249) (ligand, rat, UniProt P23363 131-249, looked up)
chain: HSDPARRGELSVCDSISEWVTAADKKTAVDMSGGTVTVLEKVPVSKGQLKQYFYETKCNPMGYTKEGCRGIDKRHWNSQCRTTQSYVRALTMDSKKRIGWRFIRIDTSCVCTLTIKRGR
modifications: disulfides Cys143-Cys210, Cys188-Cys239, Cys199-Cys241; labelled with NT-647 RED dye in the MST set-up with labelled BDNF
notes: mature BDNF, cut from proBDNF by furin, His131-Arg249; The species rests on the legend 'Preparation of rat TrkB and proBDNF'; the printed residue numbers fit a 249-residue precursor; also called mature BDNF
B2: proBDNF (ligand, rat, UniProt P23363 19-249, looked up)
chain: APMKEANVHGQGNLAYPAVRTHGTLESVNGPRAGSRGLTTTSLADTFEHVIEELLDEDQKVRPNEENHKDADLYTSRVMLSSQVPLEPPLLFLLEEYKNYLDAANMSMRVRRHSDPARRGELSVCDSISEWVTAADKKTAVDMSGGTVTVLEKVPVSKGQLKQYFYETKCNPMGYTKEGCRGIDKRHWNSQCRTTQSYVRALTMDSKKRIGWRFIRIDTSCVCTLTIKRGR
notes: proBDNF, the pro-form of brain-derived neurotrophic factor; also called pro-form of BDNF; source: E. coli Rosetta 2 (DE3), inclusion bodies, folded in vitro, purified (SP-sepharose)

Assays:
[1] = target: TrkB Ig2 domain (His283-Glu428) (rat); assay: MST; in solution; TrkB variant (intact or legumain-processed) labelled with NT-647 RED and kept constant, unlabelled BDNF (20.5 uM) in a 16-step 1:2 dilution series; 1x PBS pH 7.4, 0.005% Tween 20; 10 min at RT; Monolith NT.115
[2] = target: legumain-processed TrkB Ig2 domain (rat); assay: as above
[3] = target: T1, legumain-processed TrkB ectodomain (rat, UniProt Q63604-1 29-391, glycosylated; labelled with NT-647 RED dye in the MST); assay: as above; conditions: both partners purified
T1 construct: TrkB, rat, ectodomain construct Ser29-Glu428 cut by legumain in the membrane linker; dominant cleavage site after Asn391, minor sites after Asp385 and Asn389, so the C-terminus is a mixture; C-terminal limit is that of the dominant cleavage site (Asn391); the His6 tag is lost with the cut fragment; also called legumain-processed TrkB ECD; processed TrkB ECD; source: HEK293S, purified (Ni-NTA), …
T1 sequence (Q63604 29-391): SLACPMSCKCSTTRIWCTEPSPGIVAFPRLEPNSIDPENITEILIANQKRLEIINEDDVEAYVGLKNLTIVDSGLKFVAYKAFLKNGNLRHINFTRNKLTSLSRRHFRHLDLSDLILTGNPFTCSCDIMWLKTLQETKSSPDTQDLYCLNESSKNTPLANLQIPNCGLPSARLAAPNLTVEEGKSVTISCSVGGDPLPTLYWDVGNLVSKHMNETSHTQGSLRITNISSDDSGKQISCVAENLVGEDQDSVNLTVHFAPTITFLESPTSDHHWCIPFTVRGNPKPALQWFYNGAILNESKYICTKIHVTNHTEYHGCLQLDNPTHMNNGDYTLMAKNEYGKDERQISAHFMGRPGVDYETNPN

[4] = target: T2, TrkB ectodomain (Ser29-Glu428) (rat, UniProt Q63604-1 29-428, several glycosylation forms; labelled with NT-647 RED dye in the MST set-up with labelled TrkB); assay: as above; conditions: both partners purified
T2 construct: Secreted by way of the pHLsec vector; also called TrkB ECD; full-length ectodomain; source: HEK293S, transfected (pHLsec), secreted into medium, purified (Ni-NTA); not shown: His6, C-terminal, kept
T2 sequence (Q63604 29-428): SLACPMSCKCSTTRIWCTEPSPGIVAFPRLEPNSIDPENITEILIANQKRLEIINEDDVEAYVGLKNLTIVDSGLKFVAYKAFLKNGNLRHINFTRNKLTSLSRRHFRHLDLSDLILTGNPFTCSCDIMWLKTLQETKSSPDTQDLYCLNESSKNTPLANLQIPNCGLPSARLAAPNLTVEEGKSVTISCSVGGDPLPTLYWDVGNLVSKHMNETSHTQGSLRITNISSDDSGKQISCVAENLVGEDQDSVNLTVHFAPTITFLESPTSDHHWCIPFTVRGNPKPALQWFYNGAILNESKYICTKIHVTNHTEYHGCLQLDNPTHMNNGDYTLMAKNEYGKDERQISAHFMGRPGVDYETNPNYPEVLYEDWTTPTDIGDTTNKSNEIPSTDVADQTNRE

[5] = target: the molecule itself; assay: dynamic light scattering; BDNF alone; Figure S4C; conditions not shown
[6] = target: T2, TrkB ectodomain (Ser29-Glu428); assay: MST; in solution; TrkB ECD or Ig2 with proBDNF; which partner was labelled is not told; MST buffer 1x PBS pH 7.4, 0.005% Tween 20; conditions: both partners purified
[7] = target: TrkB Ig2 domain (His283-Glu428) (rat); assay: as above

Binder	Kd [1]	Kd [2]	Kd [3]	Kd [4]	stoichiometry N [5]	Kd [6]	Kd [7]
B1	67 nM	300 nM	188 ± 82 nM	106 ± 44 nM	2	–	–
B2	–	–	–	–	–	306 nM	441 nM

Source: paper PMC10049731, “Legumain Functions as a Transient TrkB Sheddase” (International Journal of Molecular Sciences, 2023)
